Tests used:
[1] = molecular target: T1, hCMV gH + gL + UL128 + UL130 + UL131A (5-member complex; HEK293T co-transfectant) (hCMV, UniProt P12824 24-743; P16832 31-278; P16837 1-171; P16772 1-214); assay: cell competition; competitor 4I22-biotin
T1 construct: whole, on cells; in the functional rows it stands for the complex on virions or transduced cells of the strain or isolate named in the readout; also called gH/gL/UL128-131A complex; pentameric complex

[2] = molecular target: T1, hCMV gH + gL + UL128 + UL130 + UL131A …; assay: cell competition; competitor 4N10-biotin
[3] = molecular target: T2, hCMV gH + gL + UL128 + UL130 (HEK293T co-transfectant) (hCMV, UniProt P12824 24-743; P16832 31-278; P16837 28-171; P16772 1-214); assay: cell-based or functional assay
[4] = molecular target: T2, hCMV gH + gL + UL128 + UL130 (HEK293T …); assay: cell-based or functional assay; remark: listed apart in the source
[5] = molecular target: T1, hCMV gH + gL + UL128 + UL130 + UL131A …; assay: cell competition; competitor 1F11-biotin
[6] = molecular target: T1, hCMV gH + gL + UL128 + UL130 + UL131A …; assay: cell competition; competitor 6G4-biotin
[7] = molecular target: T1, hCMV gH + gL + UL128 + UL130 + UL131A …; assay: cell competition; competitor 15D8-biotin
[8] = molecular target: T1, hCMV gH + gL + UL128 + UL130 + UL131A …; assay: cell competition; competitor 5A2-biotin
[9] = molecular target: T1, hCMV gH + gL + UL128 + UL130 + UL131A …; assay: cell competition; competitor 8I21-biotin
[10] = molecular target: T1, hCMV gH + gL + UL128 + UL130 + UL131A …; assay: cell competition; competitor 2F4-biotin
[11] = molecular target: T1, hCMV gH + gL + UL128 + UL130 + UL131A …; assay: cell competition; competitor 2C12-biotin
[12] = molecular target: T3, hCMV gM + gN (HEK293T co-transfectant) (hCMV, UniProt P16733 1-372; P16795 22-138); assay: cell-based or functional assay
T3 sequence 1: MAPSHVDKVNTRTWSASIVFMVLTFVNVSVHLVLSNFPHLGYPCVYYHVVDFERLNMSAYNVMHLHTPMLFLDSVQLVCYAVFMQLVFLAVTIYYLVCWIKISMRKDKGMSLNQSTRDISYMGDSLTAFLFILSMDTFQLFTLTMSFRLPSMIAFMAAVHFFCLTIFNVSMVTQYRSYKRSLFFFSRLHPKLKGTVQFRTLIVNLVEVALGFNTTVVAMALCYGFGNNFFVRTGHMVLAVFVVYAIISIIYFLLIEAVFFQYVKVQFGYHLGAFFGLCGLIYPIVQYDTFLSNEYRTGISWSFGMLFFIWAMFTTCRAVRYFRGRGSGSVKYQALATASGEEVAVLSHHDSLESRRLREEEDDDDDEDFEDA
T3 sequence 2: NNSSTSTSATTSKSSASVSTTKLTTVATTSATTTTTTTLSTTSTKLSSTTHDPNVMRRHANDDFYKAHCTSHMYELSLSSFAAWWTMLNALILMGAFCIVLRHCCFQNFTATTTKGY

[13] = molecular target: T3, hCMV gM + gN (HEK293T co-transfectant); assay: cell-based or functional assay; remark: listed apart in the source
[14] = molecular target: T4, hCMV glycoprotein B (gB; HEK293T transfectant) (hCMV, UniProt P06473 32-906); assay: cell-based or functional assay
[15] = molecular target: T4, hCMV glycoprotein B (gB; HEK293T …); assay: cell competition; competitor 2B11-biotin
[16] = molecular target: T4, hCMV glycoprotein B (gB; HEK293T …); assay: cell competition; competitor 10C6-biotin
[17] = molecular target: T4, hCMV glycoprotein B (gB; HEK293T …); assay: cell competition; competitor 6B4-biotin
[18] = molecular target: T4, hCMV glycoprotein B (gB; HEK293T …); assay: cell-based or functional assay; remark: listed apart in the source
[19] = molecular target: T4, hCMV glycoprotein B (gB; HEK293T …); assay: cell-based or functional assay; remark: listed apart in the source
[20] = molecular target: T4, hCMV glycoprotein B (gB; HEK293T …); assay: cell competition; competitor 5F1-biotin
[21] = molecular target: T4, hCMV glycoprotein B (gB; HEK293T …); assay: cell-based or functional assay; remark: listed apart in the source
[22] = molecular target: T5, soluble gB ectodomain expressed in a mammalian cell line (hCMV, UniProt P06473 32-750); assay: ELISA, soluble gB ectodomain; ELISA on soluble gB ectodomain (4I22 was measured by Biacore on the 5-member complex)
T5 construct: extracellular domain

[23] = molecular target: hCMV gB E361K + D362N (virus selected with 7H3 in fibroblasts) (hCMV); assay: cell-based or functional assay
[24] = molecular target: T4, hCMV glycoprotein B (gB; HEK293T …); assay: cell-based or functional assay; remark: listed apart in the source
[25] = molecular target: hCMV gB E381 deletion (virus selected with 7H3 in epithelial cells) (hCMV); assay: cell-based or functional assay
[26] = molecular target: T4, hCMV glycoprotein B (gB; HEK293T …); assay: cell-based or functional assay; remark: listed apart in the source
[27] = molecular target: T4, hCMV glycoprotein B (gB; HEK293T …); assay: cell competition; competitor 7H3-biotin
[28] = molecular target: T4, hCMV glycoprotein B (gB; HEK293T …); assay: cell competition; competitor 4H9-biotin

T4 sequence (P06473 32-906 limits assumed): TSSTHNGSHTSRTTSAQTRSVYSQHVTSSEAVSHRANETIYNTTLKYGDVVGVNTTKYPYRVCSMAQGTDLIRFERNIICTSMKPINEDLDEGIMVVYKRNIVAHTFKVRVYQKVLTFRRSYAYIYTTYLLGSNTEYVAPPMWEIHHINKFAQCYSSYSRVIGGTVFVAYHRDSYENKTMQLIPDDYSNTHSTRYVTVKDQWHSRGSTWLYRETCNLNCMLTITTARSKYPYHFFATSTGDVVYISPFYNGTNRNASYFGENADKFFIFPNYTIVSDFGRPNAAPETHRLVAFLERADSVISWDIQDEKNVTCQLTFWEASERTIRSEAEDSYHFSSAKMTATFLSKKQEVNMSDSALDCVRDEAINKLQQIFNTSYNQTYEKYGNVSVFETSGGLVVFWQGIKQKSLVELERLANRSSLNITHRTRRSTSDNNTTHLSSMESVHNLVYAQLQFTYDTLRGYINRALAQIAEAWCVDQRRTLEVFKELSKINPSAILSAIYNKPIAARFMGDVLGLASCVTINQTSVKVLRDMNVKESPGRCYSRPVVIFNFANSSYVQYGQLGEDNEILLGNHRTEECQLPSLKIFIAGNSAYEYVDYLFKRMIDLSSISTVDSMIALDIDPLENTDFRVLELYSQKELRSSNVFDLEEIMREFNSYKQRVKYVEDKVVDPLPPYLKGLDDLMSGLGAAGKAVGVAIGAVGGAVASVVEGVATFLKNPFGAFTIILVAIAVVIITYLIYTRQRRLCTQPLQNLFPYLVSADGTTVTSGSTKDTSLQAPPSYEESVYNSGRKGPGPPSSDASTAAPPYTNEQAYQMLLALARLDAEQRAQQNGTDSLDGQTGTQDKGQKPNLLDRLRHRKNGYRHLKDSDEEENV
T5 sequence (P06473 32-750 limits assumed): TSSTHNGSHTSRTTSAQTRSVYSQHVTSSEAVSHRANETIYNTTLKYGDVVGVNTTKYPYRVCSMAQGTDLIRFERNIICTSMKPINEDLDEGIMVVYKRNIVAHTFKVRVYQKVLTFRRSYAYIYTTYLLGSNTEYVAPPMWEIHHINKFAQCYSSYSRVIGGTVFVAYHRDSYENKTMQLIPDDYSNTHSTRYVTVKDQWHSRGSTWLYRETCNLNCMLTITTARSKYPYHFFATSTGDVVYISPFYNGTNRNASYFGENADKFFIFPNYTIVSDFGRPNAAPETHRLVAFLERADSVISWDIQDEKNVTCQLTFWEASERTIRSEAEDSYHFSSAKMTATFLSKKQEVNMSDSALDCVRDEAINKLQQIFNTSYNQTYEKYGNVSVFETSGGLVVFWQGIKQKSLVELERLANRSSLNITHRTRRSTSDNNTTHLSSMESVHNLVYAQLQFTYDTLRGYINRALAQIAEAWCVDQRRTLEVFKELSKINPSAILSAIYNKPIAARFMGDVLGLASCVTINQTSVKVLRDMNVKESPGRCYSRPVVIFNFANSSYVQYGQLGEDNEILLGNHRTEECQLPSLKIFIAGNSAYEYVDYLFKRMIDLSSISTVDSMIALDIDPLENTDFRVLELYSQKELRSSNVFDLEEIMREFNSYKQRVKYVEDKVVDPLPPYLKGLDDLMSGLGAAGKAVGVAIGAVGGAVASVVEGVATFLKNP

B1: 8I21 (antibody, V domains shown)
VH: LVELVESGGGVVQPGRSLRLSCAASGFTFSSDGMHWVRQSPGRGLEWVAFISSDGSTPYYADSVKGRFTISRDNSKNTLYLQMNSLRAEDTAMYFCAKDWALFRWLRTFDHWGQGTLVTVSS
VL: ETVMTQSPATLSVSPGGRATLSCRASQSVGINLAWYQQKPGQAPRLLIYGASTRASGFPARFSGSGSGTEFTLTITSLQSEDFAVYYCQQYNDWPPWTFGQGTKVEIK
notes: human IgG; also called 8I21-biotin
[1]
  Inhibition of binding (%): 0%
[2]
  Inhibition of binding (%): 90%
[3]
  90% neutralization VR1814, ARPE: 0.03 µg/mL
  90% neutralization VR1814, MRC-9: > 10 µg/mL
[4]
  50% neutralization VR1814, ARPE: < 0.01 µg/mL
  50% neutralization VR1814, MRC-9: > 2 µg/mL
[5]
  Inhibition of binding (%): 0%
[6]
  Inhibition of binding (%): 0%
[7]
  Inhibition of binding (%): 0%
[8]
  Inhibition of binding (%): 95%
[9]
  Inhibition of binding (%): 100%
[10]
  Inhibition of binding (%): 0%
[11]
  Inhibition of binding (%): 0%

B2: 6L3 (antibody, V domains shown)
VH: EVRLEESGGGLVQPGGSLRLSCAASGFTVSTTYMAWVRQAPGKGLEWVSLIHTGGIFGVGGTSYADSVKGRFTISRDTSKNTVSLQMSSLRVEDTAIYFCAREHRGTIDAFDAWGQGTVVIVSS
VL: DIHMTQSPSSLSASVGDRVTITCRASQNIRNYLNWYQHKPGKAPKLLIYTTSRLQSGVPSRFSGSGSGTDFTLTVNSLQPEDFASYYCQQSYDGWTFGQGTKVEMK
[12]
  90% neutralization VR1814, ARPE: 10 µg/mL
  90% neutralization VR1814, MRC-9: 30 µg/mL
[13]
  50% neutralization VR1814, ARPE: ≤ 2 µg/mL

B3: 7H3 (antibody, V domains shown)
VH: QVQLVQSGAEVKNPGASVKVSCKASGYTFTDYYIHWVRQAPGQGLEWMGWFNPNSGGTNFVQNFQGRVTMTRDTSISTAYMELSRLRSDDTAMYYCAKDSAKTASAYYGLNFFYYGMDVWGQGTTVTVSS
VL: QSVLSQPPSASGTPGQRVTISCSGSSSNIGKNYVYWYQQVPGTAPKLLMFKNNQRPSGVPDRFSGSKSGTSASLAISGLRSEDEADYYCSAWDGSLSRPLFGGGTKVTVL
notes: fully human IgG1 with unaltered Fc; also called 7H3-biotin; LJP538
[14]
  EC90 neutralization HUVEC, isolate TM-20749: 1.18 µg/mL
  EC90 neutralization HUVEC, isolate TM-31354: 2.2 µg/mL
  EC90 neutralization HUVEC, isolate TM-E5271: 0.19 µg/mL
  EC90 neutralization HUVEC, isolate TM-E9361: 0.29 µg/mL
  EC90 neutralization HUVEC, isolate TM-E14953: 0.12 µg/mL
  EC90 neutralization HUVEC, isolate TM-E19664: 0.31 µg/mL
  EC90 neutralization HUVEC, isolate TM-E20744: 0.39 µg/mL
  EC90 neutralization HUVEC, isolate TM-E28175: 0.28 µg/mL
  EC90 neutralization HUVEC, isolate TM-E28257: 1.02 µg/mL
[15]
  Inhibition of binding (%): 0%
[16]
  Inhibition of binding (%): 0%
[17]
  Inhibition of binding (%): 0%
[18]
  neutralization of ARPE infection, isolate TM-20749: 4.36 µg/mL
  neutralization of ARPE infection, isolate TM-31354: 1.42 µg/mL
  neutralization of ARPE infection, isolate TM-E5271: 0.17 µg/mL
  neutralization of ARPE infection, isolate TM-E9361: 0.33 µg/mL
  neutralization of ARPE infection, isolate TM-E14953: 1.09 µg/mL
  neutralization of ARPE infection, isolate TM-E19664: 0.26 µg/mL
  neutralization of ARPE infection, isolate TM-E20744: 1.37 µg/mL
  neutralization of ARPE infection, isolate TM-E28175: 0.24 µg/mL
  neutralization of ARPE infection, isolate TM-E28257: 1.16 µg/mL
[19]
  90% neutralization VR1814, ARPE: 0.6 µg/mL
  90% neutralization VR1814, MRC-9: 3 µg/mL
[20]
  Inhibition of binding (%): 0%
[21]
  50% neutralization VR1814, ARPE: > 2 µg/mL
  50% neutralization VR1814, MRC-9: ≤ 2 µg/mL
[22]
  Kd: 0.29 nM
[23]
  fold increase in neutralization EC50 of escape virus: > 41 fold
[24]
  EC50 inhibition of cell-cell fusion: 4.77 µg/mL
[25]
  fold decrease in susceptibility of escape virus: 22 fold
[26]
  50% neutralization VR1814, BM-MSC: 2 µg/mL
  50% neutralization VR1814, Mo-DC: 0.06 µg/mL
[27]
  Inhibition of binding (%): 100%
[28]
  Inhibition of binding (%): 0%

— patent US20170296650A1 (Novartis, published 2017)
